The values that follow come from PMC12743552, “Key residues regulating von Willebrand factor A1/A2 interactions: insights from molecular dynamics simulations and experimental validation” (Research and Practice in Thrombosis and Haemostasis, 2025).

B1: VWF-A1 mutant A1_mut (D1323A/R1334A/Q1367A) (domain or fragment)
chain: QEPGGLVVPPTDAPVSPTTLYVEDISEPPLHDFYCSRLLDLVFLLDGSSRLSEAEFEVLKAFVVDMMERLRISQKWVRVAVVEYHAGSHAYIGLKDAKRPSELRRIASQVKYAGSQVASTSEVLKYTLFAIFSKIDRPEASRITLLLMASQEPQRMSRNFVRYVQGLKKKKVIVIPVGIGPHANLKQIRLIEKQAPENKAFVLSSVDELEQQRDEIVSYLCDLAPEAPPPTLPPD
notes: von Willebrand factor, A1 domain, residues Q1238-D1472, with D1323A, R1334A and Q1367A; source: HEK293F cells, culture medium collected, purified (Ni2+-Hi-Trap chelating column); not shown: His tag, N-terminal, kept
B3: recombinant VWF-A2 (von Willebrand factor A2 domain, amino acids M1473-G1672), wild type (domain or fragment)
chain: MAQVTVGPGLLGVSTLGPKRNSMVLDVAFVLEGSDKIGEADFNRSKEFMEEVIQRMDVGQDSIHVTVLQYSYMVTVEYPFSEAQSKGDILQRVREIRYQGGNRTNTGLALRYLSDHSFLVSQGDREQAPNLVYMVTGNPASDEIKRLPGDIQVVPIGVGPNANVQELERIGWPNAPILIQDFETLPREAPDLVLQRCCSG
modifications: biotinylated in the BLI assay (site not stated); not said to be biotinylated in the AFM assay
notes: von Willebrand factor, A2 domain, residues M1473-G1672; cloned from a full-length VWF plasmid (MiaoLingBio); Secreted into the medium of HEK293F cells; The discussion calls the host HEK293 cells; source: HEK293F cells, culture medium collected, purified (Ni2+-Hi-Trap chelating column); not shown: His tag, N-terminal, kept

Experiment [1] addresses von Willebrand factor A2 G1481-R1668 (Homo sapiens) (UniProt P04275). The note with it: cited from earlier work.
Experiment [2] concerns the target B3. Briefly: atomic force microscopy (adhesion frequency and rupture force); VWF-A2 (15 ug/mL) held on the cantilever tip and VWF-A1 or its variants (15 ug/mL) on polystyrene dishes, each through adsorbed mouse anti-His mAb; blocked with 2% BSA; approach-retraction speed 200 nm/s in 2% BSA; 100 contact cycles a point. Conditions: both partners purified.
Experiment [3] deals with T1, recombinant VWF-A1 (von Willebrand factor A1 domain, amino acids Q1238-D1472), wild type (UniProt P04275 1238-1472).
T1 construct: von Willebrand factor, A1 domain, residues Q1238-D1472; cloned from a full-length VWF plasmid (MiaoLingBio); Secreted into the medium of HEK293F cells; The tag is 6xHis to judge from the anti-6xHis antibody used for capture; also called WT A1; WT VWF-A1; source: HEK293F cells, culture medium collected, purified (Ni2+-Hi-Trap chelating column); not shown: His tag, N-terminal, kept
Briefly: BLI; biotinylated A2 (10 ug/mL) immobilised on streptavidin biosensors, quenched with biocytin; A1 125-4000 nM in solution; Octet R8, 30 °C, 1000 rpm; PBS with 0.02% Tween-20 and 0.1% BSA; global fit to a 1:1 Langmuir model. Conditions: both partners purified.

The target in experiment [4] is B1. The description is as above. Conditions: both partners purified.

The Kd is a measure of binding affinity in units of concentration. As to “von Willebrand factor A1 A1 (from UniProt P04275)”, the Kd in experiment [1] is 0.0649 µM.

Turning to B1, in experiment [2], the adhesion frequency turned out to be 14.5%, the average rupture force turned out to be 41.5 pN and the “central peak value (XC) of the rupture force distribution” value was 35 pN.

B2: VWF-A2 mutant A2_mut (V1546A/R1575A/E1598A) (domain or fragment)
chain: MAQVTVGPGLLGVSTLGPKRNSMVLDVAFVLEGSDKIGEADFNRSKEFMEEVIQRMDVGQDSIHVTVLQYSYMATVEYPFSEAQSKGDILQRVREIRYQGGNATNTGLALRYLSDHSFLVSQGDRAQAPNLVYMVTGNPASDEIKRLPGDIQVVPIGVGPNANVQELERIGWPNAPILIQDFETLPREAPDLVLQRCCSG
notes: von Willebrand factor, A2 domain, residues M1473-G1672, with V1546A, R1575A and E1598A; source: HEK293F cells, culture medium collected, purified (Ni2+-Hi-Trap chelating column); not shown: His tag, N-terminal, kept
The term koff denotes a measure of how fast the partners let go of each other. As usually defined, the kon is a measure of how fast the partners come together. On to B2, for which, in experiment [3], the Kd stood at 4.2 µM, the koff turned out to be 0.046 s⁻¹ and the kon is 11000 M⁻¹ s⁻¹.

In experiment [4], B3 yielded a Kd of 6.1 µM, a koff of 0.081 s⁻¹ and a kon of 13000 M⁻¹ s⁻¹. In experiment [3], the Kd is 2.16 µM, the off-rate constant (koff) was 0.037 s⁻¹ and the kon is 17000 M⁻¹ s⁻¹.
